Where a chain is given by its changes, count along the chain named.
T1: Macaca mulatta TF on RF/6A cells (Macaca mulatta, UniProt P13726 33-294 (human entry))
T1 construct: also called TF-positive Macaca mulatta RF/6A cells; cynomolgus TF (cTF)
T1 chain: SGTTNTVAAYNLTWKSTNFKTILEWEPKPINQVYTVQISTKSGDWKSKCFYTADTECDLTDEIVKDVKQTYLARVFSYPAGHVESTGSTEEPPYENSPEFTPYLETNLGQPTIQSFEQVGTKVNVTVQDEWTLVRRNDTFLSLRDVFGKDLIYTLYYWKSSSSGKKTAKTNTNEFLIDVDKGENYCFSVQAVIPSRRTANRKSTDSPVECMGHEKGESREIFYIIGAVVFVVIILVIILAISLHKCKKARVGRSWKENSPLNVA

B1: 1F (antibody, V domains shown)
VH: EVQLLESGGGLVQPGGSLRLSCAASGFTFSDYAMGWVRQAPGKGLEWVSTISGSGGLTYYADSVKGRFTISRDNSKNTLYLQMNSLRAEDTAVYYCAKAPYGYYMDVWGKGTTVTVSS
VL: not shown
notes: Human anti-TF IgG1
B2: 1G (antibody, V domains shown)
VH: B1 VH with D31S, G35A, T50A
VL: not shown
notes: Human anti-TF IgG1
B3: 39A (antibody, V domains shown)
VH: QVQLVQSGAEVKKPGSSVKVSCKASGGTFSSNAIGWVRQAPGQGLEWMGSIIPIIGFANYAQKFQGRVTITADESTSTAYMELSSLRSEDTAVYYCARDSGYYYGASSFGMDVWGQGTTVTVSS
VL: EIVMTQSPATLSVSPGERATLSCRASQSVSSNLAWYQQKPGQAPRLLIYGASTRATGIPARFSGSGSGTEFTLTISSLQSEDFAVYYCEQYNNLPLTFGGGTKVEIK
notes: Human anti-TF IgG1
B4: anti-TF antibody 25A (antibody, human IgG1, V domains shown)
VH: QVQLVQSGAEVKKPGASVKVSCKASGYTFDVYGISWVRQAPGQGLEWMGWIAPYNGNTNYAQKLQGRVTMTTDTSTSTAYMELRSLRSDDTAVYYCARDAGTYSPFGYGMDVWGQGTTVTVSS
VL: DIQMTQSPSTLSASVGDRVTITCRASQSISSWLAWYQQKPGKAPKLLIYKASSLESGVPSRFSGSGSGTEFTLTISSLQPDDFATYYCQQFQSLPPFTFGGGTKVEIK
notes: Human IgG1
B5: anti-TF antibody 25G1 (antibody, human IgG1, kappa, V domains shown)
VH: B4 VH with D30R, V31S, I51V, N55S, F106Y
VL: DIQMTQSPSTLSASVGDRVTITCRASHSIDSWLAWYQQKPGKAPKLLIYKASYLESGVPSRFSGSGSGTEFTLTISSLQPDDFATYYCQLFQSLPPFTFGGGTKVEIKR
notes: Human IgG1
B6: anti-TF antibody 1F (antibody, human IgG1, V domains shown)
VH: B1 VH
VL: not shown
notes: Human IgG1
B7: anti-TF antibody 29E (antibody, human IgG1, V domains shown)
VH: QVQLVESGGGVVQPGRSLRLSCAASGFTFRSYGMHWVRQAPGKGLEWVAVITYDGINKYYADSVEGRFTISRDNSKNTLYLQMNSLRAEDTAVYYCARDGVYYGVYDYWGQGTLVTVSS
VL: not shown
notes: Human IgG1
B8: anti-TF antibody 39A (antibody, human IgG1, V domains shown)
VH: B3 VH
VL: B3 VL
notes: Human IgG1
B9: anti-TF antibody 54E (antibody, human IgG1, V domains shown)
VH: QVQLVQSGAEVKKPGASVKVSCKASGYTFANYYMHWVRQAPGQGLEWMGIINPSGGITVYAQKFQGRVTMTRDTSTSTVYMELSSLRSEDTAVYYCARGGSKVAALAFDIWGQGTMVTVSS
VL: DIQMTQSPSSLSASVGDRVTITCQASQDISNSLNWYQQKPGKAPKLLIYDASNLETGVPSRFSGSRSGTDFTFTISSLQPEDIATYYCQQYNFHPLTFGGGTKVEIK
notes: Human IgG1
B10: anti-TF antibody 25A3 (antibody, human IgG1, kappa, V domains shown)
VH: B4 VH with N55S
VL: B5 VL with R24Q, H27Q, D30N, S31N, S52Y, Y53N
notes: Human IgG1

Molecular target: T2, human Tissue Factor on MDA-MB-231 cells (human, UniProt P13726 33-295)
T2 construct: also called TF; hTF
Test: flow cytometry, MDA-MB-231 cells; binding of 20 nM FVII-Fc-Alexa488 (competitor) left at 9.25 nM Ab

| Binder | % FVIIa |
| --- | --- |
| B1 | 7% |
| B2 | 7% |
| B3 | 2% |

Molecular target: T3, human Tissue Factor (hTF), endogenously expressed on human TF-positive cells (human, UniProt P13726 33-295)
Test: cell-based or functional assay

| Binder | % GM-CSF, 2.56 nM antibody, MDA-MB-231 cells + FVIIa | % GM-CSF, 6.4 nM antibody, MDA-MB-231 cells + FVIIa | % GM-CSF, 16 nM antibody, MDA-MB-231 cells + FVIIa | % GM-CSF, 40 nM antibody, MDA-MB-231 cells + FVIIa | % GM-CSF, 100 nM antibody, MDA-MB-231 cells + FVIIa |
| --- | --- | --- | --- | --- | --- |
| B4 | 57% | 24% | 22% | 19% | 22% |
| B5 | 48% |  |  |  |  |
| B6 | 27% | 8% | 6% | 6% | 6% |
| B7 | 33% | 9% | 5% | 6% | 6% |
| B8 | 42% | 8% | 5% | 5% | 7% |
| B9 | 38% | 10% | 5% | 5% | 5% |

Molecular target: T2, human Tissue Factor on MDA-MB-231 cells
Test: cell-based or functional assay

| Binder | % IL8, 2.56 nM Ab | % IL8, 6.4 nM Ab | % IL8, 16 nM Ab | % IL8, 40 nM Ab | % IL8, 100 nM Ab |
| --- | --- | --- | --- | --- | --- |
| B1 | 18% | 3% | 2% | 2% | 2% |
| B2 | 26% | 4% | 3% | 2% | 2% |
| B3 | 52% | 6% | 2% | 2% | 3% |

Molecular target: T2, human Tissue Factor on MDA-MB-231 cells
Test: flow cytometry, MDA-MB-231 cells; binding of 20 nM FVII-Fc-Alexa488 (competitor) left at 28 nM Ab

| Binder | % FVIIa |
| --- | --- |
| B1 | 7% |
| B2 | 7% |
| B3 | 2% |

Molecular target: Relipidated TF (UniProt P13726 33-295, limits assumed)
Test: cell-based or functional assay

| Binder | TGA % ETP, 10 nM Ab, 10 min pre-incubation | TGA % Peak IIa, 10 nM Ab, 10 min pre-incubation | TGA % Peak IIa, 50 nM Ab, 10 min pre-incubation | TGA % Peak IIa, 100 nM Ab, 10 min pre-incubation | TGA ETP, 10 nM Ab, 10 min pre-incubation | TGA Lag Time, 10 nM Ab, 10 min pre-incubation | TGA Lag Time, 50 nM Ab, 10 min pre-incubation | TGA Lag Time, 100 nM Ab, 10 min pre-incubation | TGA Peak IIa, 10 nM Ab, 10 min pre-incubation | TGA Peak IIa, 50 nM Ab, 10 min pre-incubation |
| --- | --- | --- | --- | --- | --- | --- | --- | --- | --- | --- |
| B1 | 31% | 10% | 7% | 7% | 540 nM·min | 18.8 min | 27.6 min | 30.3 min | 27 nM | 20 nM |
| B3 | 28% | 9% | 7% | 7% | 482 nM·min | 20.8 min | 28.4 min | 28 min | 25 nM | 17 nM |

Same assay, conditions: not given

| Binder | TGA Peak IIa, 100 nM Ab, 10 min pre-incubation | TGA ttPeak, 10 nM Ab, 10 min pre-incubation | TGA ttPeak, 50 nM Ab, 10 min pre-incubation | TGA ttPeak, 100 nM Ab, 10 min pre-incubation | TGA % ETP, 50 nM Ab, 10 min pre-incubation | TGA ETP, 50 nM Ab, 10 min pre-incubation |
| --- | --- | --- | --- | --- | --- | --- |
| B1 | 17 nM | 28.6 min | 38.9 min | 42 min |  |  |
| B3 | 17 nM | 30.7 min | 38.9 min | 40.2 min | 20% | 346 nM·min |

Molecular target: T4, Expi293-derived human TF ECD-His6 (TF-His) (human, UniProt P13726 33-251)
T4 construct: Glycosylated TF ECD-His6 made in Expi293 cells and coated on ELISA plates; also called Expi293-derived TF protein
Test: protein ELISA, plate coated with Expi293-derived TF-His

| Binder | EC50 |
| --- | --- |
| B4 | 0.54 nM |
| B10 | 0.47 nM |
| B5 | 0.42 nM |
| B6 | 0.41 nM |
| B7 | 0.98 nM |
| B8 | 0.45 nM |
| B9 | 0.96 nM |

Molecular target: T1, Macaca mulatta TF on RF/6A cells
Test: flow cytometry on Macaca mulatta RF/6A cells

| Binder | EC50 |
| --- | --- |
| B4 | 0.43 nM |
| B10 | 0.27 nM |
| B5 | 0.27 nM |
| B6 | 0.17 nM |
| B7 | 0.53 nM |
| B8 | 0.27 nM |
| B9 | 1.28 nM |

Molecular target: T3, human Tissue Factor (hTF), endogenously …
Test: flow cytometry competition on A431 cells, 100 nM unlabelled antibody, competitor 20 nM 25A-Alexa488

| Binder | % 25A binding |
| --- | --- |
| B4 | 3% |
| B6 | 95% |
| B7 | 96% |
| B8 | 99% |
| B9 | 99% |

Molecular target: T5, E. coli-derived TF ECD-His6 (Homo sapiens (Human), UniProt P13726 33-251)
T5 construct: The OmpA signal is not part of that entry; also called E.coli-derived TF protein; E. coli-derived TF-His
Test: protein ELISA, plate coated with E. coli-derived TF-His

| Binder | EC50 |
| --- | --- |
| B4 | 0.35 nM |
| B10 | 0.36 nM |
| B5 | 0.31 nM |
| B6 | 0.32 nM |
| B7 | 0.68 nM |
| B8 | 0.34 nM |
| B9 | 0.38 nM |

Molecular target: T2, human Tissue Factor on MDA-MB-231 cells
Test: flow cytometry, MDA-MB-231 cells; binding of 20 nM FVII-Fc-Alexa488 (competitor) left at 250 nM Ab

| Binder | % FVIIa |
| --- | --- |
| B1 | 6% |
| B2 | 6% |
| B3 | 2% |

Molecular target: T2, human Tissue Factor on MDA-MB-231 cells
Test: flow cytometry, MDA-MB-231 cells; binding of 20 nM FVII-Fc-Alexa488 (competitor) left at 83 nM Ab

| Binder | % FVIIa |
| --- | --- |
| B1 | 7% |
| B2 | 7% |
| B3 | 2% |

Molecular target: T2, human Tissue Factor on MDA-MB-231 cells
Test: cell-based or functional assay
Remark: another data set of the same source

| Binder | % FXa, 12.5 nM Ab | % FXa, 25 nM Ab | % FXa, 50 nM Ab | % FXa, 100 nM Ab |
| --- | --- | --- | --- | --- |
| B2 | 55% | 48% | 41% | 41% |

Molecular target: T3, human Tissue Factor (hTF), endogenously …
Test: flow cytometry competition on A431 cells, 100 nM unlabelled antibody, competitor 20 nM 43Ea-Alexa488

| Binder | % 43Ea binding |
| --- | --- |
| B4 | 1% |
| B6 | 77% |
| B7 | 85% |
| B9 | 96% |

From patent publication US20240166765A1 (ICONIC THERAPEUTICS, published 2024)
